These results are taken from PMC5750132.

The target of experiment [1] is Truncated mouse TMEM16A (amino acids 1-903) (mouse). Put plainly: cryo-EM structure.
For experiment [2] the target is unchanged. Description: cryo-EM structure. The source holds these as a separate data set.

Where two headings read alike, the source gives them in different places.

As a reminder, the stoichiometry N is the number of molecules, sites or subunits per partner or assembly.

In the case of “Truncated mouse TMEM16A (amino acids 1-903) (domain or fragment)”, the stoichiometry N in experiment [1] and in experiment [2] was 2 each time.
